Data taken from patent publication US20250243265A1.

How the values were obtained:
[1] = target: endogenous K63 polyubiquitin linkages in 293T cell lysates (human) (UniProt P0CG48); assay: IP in 7 M urea from LUBAC over-expressing 293T lysate (input 5075), mass spec AQUA
[2] = target: endogenous K48 polyubiquitin linkages in 293T cell lysates (human) (UniProt P0CG48); assay: IP in 7 M urea from LUBAC over-expressing 293T lysate (input 12420), mass spec AQUA
[3] = target: K63-linked diubiquitin (Boston Biochem) (Homo sapiens (Human)) (UniProt P0CG48); assay: western blot, 1 µg/mL IgG, two-fold dilutions of K63-linked diubiquitin

polyubiquitin linkages recovered in the IP [1] [pmol] | polyubiquitin linkages recovered in the IP [2] [pmol] | limit of detection in western blot [3] [ng] | Substance
0 | 1 | – | isotype control IgG (unrelated human kappa IgG1 antibody)
– | – | 62 | Apu3.A8 anti-K63 IgG (antibody)
